From CN112159475A (NANJING KAEDI BIOTECH INC, dated 2021)
Residue numbers refer to the chain shown, from its start.

T1: 融合至人IgG1 Fc段的人Siglec-15胞外结构域的重组蛋白Siglec-15-Fc (human, UniProt Q6ZMC9 20-263)
T1 construct: extracellular domain; also called 人Siglec-15重组蛋白; Siglec-15-Fc重组蛋白; not shown: human IgG1 Fc segment
T1 sequence (looked up): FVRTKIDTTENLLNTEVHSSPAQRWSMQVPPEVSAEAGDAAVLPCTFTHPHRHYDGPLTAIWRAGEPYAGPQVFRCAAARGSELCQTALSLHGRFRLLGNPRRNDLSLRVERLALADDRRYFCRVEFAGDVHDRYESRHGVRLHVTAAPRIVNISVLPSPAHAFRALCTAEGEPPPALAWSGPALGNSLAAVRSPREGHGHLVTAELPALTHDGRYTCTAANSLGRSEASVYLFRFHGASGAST

B1: KD075-C52 (antibody, V domains shown)
VH: EVQLVESGGGLVKPGGSLKLSCAASGFTFSYYAMSWVRQTPEKRLEWVATVSDVDDYTYYPDNVKGRFNISRDNAKNNLYLQMRHLKSEDTAMYYCVRDGSYGWYFDVWGTGTTVTVSS
VL: DIVMTQSPSSLTVTAGEKVTMSCKSSQSLLNSGNQKNYLTWYQQKPGQTPKLLIYWASTRESGVPDRFTGSGSGTDFTLTISSVQAEDLAVYYCQNDYSYPLTFGTGTKLELK
B2: KD075-C46 (antibody, V domains shown)
VH: EVKLVESEGGLVQPGSSMKLSCTASGFTFSDYYMAWVRQVPEKGLEWVAKINYDGSSTYYLDSLKSRFIISRDNAKNILYLQMSSLKSEDTATYYCARSYDYDGYYFDYWGQGTTLTVSS
VL: DIVLTQSPASLAMSLGKRATISCRASESVSIIGTNLIHWYQQKPGQPPKLLIYHASNLETGVPARFSGSGSRTDFTLTIDPVEEDDVAIYYCLQSRKIPWTFGGGTKLEIK
B3: KD075-C30 (antibody, V domains shown)
VH: DVQLVESGGGLVQPGGSRKLSCAASGFTFSSFGMHWVRQAPEKGLEWVAYISSGSSSIYYADTVKGRFTISRDNPKNTLFLQMTSLRSEDTAMYYCARTFPMDYWGQGTSVTVSS
VL: QAVVTQESALTTSPGETVTLTCRSSTGAVTISNYANWVQEKPDHLFTGLIGGTYNRSPGVPARFSGSLIGDKAALTITGAQTEDEAIYFCALWYSNHWVFGGGTKLTVL
B4: KD075-C31 (antibody, V domains shown)
VH: B3 VH with G16T, A23T, M93I
VL: B3 VL
B5: KD075-C40 (antibody, V domains shown)
VH: EVRLQQSGPELVKPGASVKISCKASGYTFTDYNIHWMKQSHGKSLEWIGYIYPSFGGTAYNQKFKSKATLTVDNSSSTAYMEFRSLTSEDSAVYFCAVYGNYEGFAYWGQGTLVTVSA
VL: ENVLTQSPAIMSASLGEKVTMSCRASSSVNYMYWYQQKSDASPKLWIYYTSNLAPGVPARFSGSGSGNSYYLTISSMEGEDAATYYCQQFTSSPWTFGGGTKLEIK
B6: KD075-C9 (antibody, V domains shown)
VH: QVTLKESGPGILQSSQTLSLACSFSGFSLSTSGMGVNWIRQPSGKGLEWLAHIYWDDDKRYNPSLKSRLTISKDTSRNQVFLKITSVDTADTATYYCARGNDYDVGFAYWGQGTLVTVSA
VL: DIVMTQSHKFMSTSVGDRVSITCKASQDVSTAVVWYQQKPGQSPKLLIDSASYRYTGVPDRFTGSGSGTDFTFTISSVQAEDLAVYYCQQHYSTPRTFGGGTKLEIK
B7: KD075-C18 (antibody, V domains shown)
VH: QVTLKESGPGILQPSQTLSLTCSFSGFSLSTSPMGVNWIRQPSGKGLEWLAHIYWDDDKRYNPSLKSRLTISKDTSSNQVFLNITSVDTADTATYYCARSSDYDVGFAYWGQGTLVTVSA
VL: B6 VL with V34A, P40L, D49S

target: T1, 融合至人IgG1 …; test: indirect ELISA, plate coated with 0.5 ug/ml Siglec-15-Fc, purified antibody titrated from 10 ug/ml

EC50	Binder
2.25 ng/mL	B1
2.29 ng/mL	B2
2.27 ng/mL	B3
2.4 ng/mL	B4
2.41 ng/mL	B5
1.97 ng/mL	B6
2.3 ng/mL	B7
